Source: US20200010567A1 (NEURIMMUNE, published 2020)

Experiments:
[1] = target: T1, GP3: H-(GP)3HHHHHH-NH2; assay: indirect ELISA, His-tagged peptide coated at 50 ug/ml, antibody titrated [also D00027 FIG. 7N]
T1 peptide: H-GPGPGPHHHHHH-NH2
From the text: (§1) In brief, dipeptide repeat proteins were synthesized and purified by Schafer-N (Copenhagen, Denmark): GA₂₀: H-(GA)₂₀HHHHHH-NH₂; GA₁₀: H-(GA)₁₀HHHHHH-NH₂; GA₆: H-(GA)₆HHHHHH-NH₂; GA₅: H-(GA)₅HHHHHH-NH₂; GA₄: H-(GA)₄HHHHHH-NH₂; GA₃: H-(GA)₃HHHHHH-NH₂; GA₂: H-(GA)₂HHHHHH-NH₂; GP₂₀: H-(GP)₂₀HHHHHH-NH₂; GP₁₀: H-(GP)₁₀HHHHHH-NH₂; GP₆: H-(GP)₆HHHHHH-NH₂; GP₅: H-(GP)₅HHHHHH-NH₂; GP₄: H-(GP)₄HHHHHH-NH₂; GP₃: H-(GP)₃HHHHHH-NH₂; GP₂: H-(GP)₂HHHHHH-NH₂. GR₂₀: H-(GR)₂₀HHHHHH-NH₂; GR₁₀: H-(GR)₁₀HHHHHH-NH₂; GR₆: H-(GR)₆HHHHHH-NH₂; GR₅: H-(GR)₅HHHHHH-NH₂; GR₄: H-(GR)₄HHHHHH-NH₂; GR₃: H-(GR)₃HHHHHH-NH₂; GR₂: H-(GR)₂HHHHHH-NH₂; PA₂₀: H-(PA)₂₀HHHHHH-NH₂; PA₁₀: H-(PA)₁₀HHHHHH-NH₂; PA₆: H-(PA)₆HHHHHH-NH₂; PA₅: H-(PA)₅HHHHHH-NH₂; PA₄: H-(PA)₄HHHHHH-NH₂; PA₃: H-(PA)₃HHHHHH-NH₂; PA₂: H-(PA)₂HHHHHH-NH₂; PR₂₀: H-(PR)₂₀HHHHHH-NH₂; PR₁₀: H-(PR)₁₀HHHHHH-NH₂; PR₆: H-(PR)₆HHHHHH-NH₂; PR₅: H-(PR)₅HHHHHH-NH₂; PR₄: H-(PR)₄HHHHHH-NH₂; PR₃: H-(PR)₃HHHHHH-NH₂; PR₂: H-(PR)₂HHHHHH-NH₂. 96-well microplates (Corning Incorporated, Corning, USA) were coated with dipeptide repeat protein peptides at a concentration of 50 μg/ml in coating buffer (15 mM Na₂CO₃, 35 mM NaHCO₃, pH 9.42). Non-specific binding sites were blocked for 1 h at room temperature with PBS/0.1% Tween®-20 containing 2% BSA (Sigma-Aldrich, Buchs, Switzerland). Primary antibodies were diluted to the indicated concentrations and incubated 1 h at room temperature, followed by incubation with a donkey anti-human IgG Fcγ-specific antibody conjugated with HRP (Jackson ImmunoResearch Laboratories, Inc., West Grove, USA). Binding was determined by measurement of HRP activity in a standard colorimetric assay. EC₅₀ values were estimated by non-linear regression using GraphPad Prism software (San Diego, USA).

[2] = target: T2, GP5: H-(GP)5HHHHHH-NH2; assay: as above
T2 peptide: H-GPGPGPGPGPHHHHHH-NH2
From the text: as §1

[3] = target: T3, GP2: H-(GP)2HHHHHH-NH2; assay: as above
T3 peptide: H-GPGPHHHHHH-NH2
From the text: as §1

[4] = target: T4, GP4: H-(GP)4HHHHHH-NH2; assay: as above
T4 peptide: H-GPGPGPGPHHHHHH-NH2
From the text: as §1

[5] = target: T5, (GA)15: H-CHHHHHH(GA)15-OH; assay: indirect ELISA, coated peptide
T5 construct: synthetic, not coupled to BSA; also called poly-GA DPR protein peptide
T5 peptide: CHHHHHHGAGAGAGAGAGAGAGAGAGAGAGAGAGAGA

[6] = target: T6, (GR)15: H-C(GR)15-OH; assay: indirect ELISA, uncoupled peptide coated, antibody titrated [also D00014 FIG. 3I]
T6 construct: synthetic, not coupled to BSA; also called poly-GR DPR protein peptide
T6 peptide: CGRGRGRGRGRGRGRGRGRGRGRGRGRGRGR
Procedure: In brief, dipeptide repeat proteins were synthesized and purified by Schafer-N(Copenhagen, Denmark): (GA)₁₅: H-CHHHHHH(GA)₁₅-OH; (GP)₁₅: H-C(GP)₁₅-OH; (GR)₁₅: H-C(GR)₁₅-OH; (PA)₁₅: H-C(PA)₁₅-OH; (PR)₁₅: H—C(PR)₁₅-OH. DPR protein peptides were then conjugated via a bifunctional linker (SMCC) to bovine serum albumin (BSA). 96-well microplates (Corning Incorporated, Corning, USA) were coated with BSA-coupled or -uncoupled dipeptide repeat protein peptides at a concentration of either 5 μg/ml or 20 μg/ml in coating buffer (15 mM Na₂CO₃, 35 mM NaHCO₃, pH 9.42). Non-specific binding sites were blocked for 1 h at room temperature with PBS/0.1% Tween®-20 containing 2% BSA (Sigma-Aldrich, Buchs, Switzerland). Primary antibodies were diluted to the indicated concentrations and incubated 1 h at room temperature, followed by incubation with a donkey anti-human IgG Fcγ-specific antibody conjugated with HRP (Jackson ImmunoResearch Laboratories, Inc., West Grove, USA). Binding was determined by measurement of HRP activity in a standard colorimetric assay. EC₅₀ values were estimated by non-linear regression using GraphPad Prism software (San Diego, USA).

B1: NI-308.46E9 (antibody, V domains shown)
VH: QVQLQESGPGLVKPSETLSLTCTVSGASISGSTYYWGWIRQPPGKGLEYIGRIYYSGSTYYNPSLKSRATISVDTSKNQLSLTLSSVTAADTAVYYCVRPFYAGSGNSPFDYWGQGTLVTVSS
VL: CEIVLTQSPATVSVSPGERATLSCRASQSVSTNLAWYQQKPGQPPRLLIYGASTRATGIPARFSGSGSGAEFTLTISSLQSEDFVVYYCQQYNNWPPAFGGGTKVEIK
notes: Recombinant complete human IgG1, kappa
binding result [1]: no binding (tested: about 4x10^5 pM (last point)) | binding result [2]: no binding (tested: about 4x10^5 pM (last point)) | binding result [3]: no binding (tested: about 4x10^5 pM (last point)) | binding result [4]: no binding (tested: about 4x10^5 pM (last point))

B2: NI-308.24E11 (antibody, V domains shown)
VH: QVQLQESGPGLVKPSETLSLTCTVSTTSLRSYFWSWIRQPPGKGLEWIGYVYYSGSTIYNPSLKNRVTISIDTSKNQFSLNLRSVTAADTAMYFCARGVPAETDARDFPPYYFDHWGQGTLVTVSS
VL: CDIQLTQSPSSLSASVGNRITFTCQASQDIRYYLNWYQQKPGKAPKLLIYDVSNLDTGVPPRFSGSGSGTNFTFTISSLQPEDIAVYYCQQYEGLPVTFGGGTKVEIK
notes: as for B1
binding result [5]: no binding

B3: NI-308.6B11 (antibody, V domains shown)
VH: EVQLVQSGAEVKRPGASVKVSCKVSGYTLTELSMHWVRQAPGKGLEWMGGFDPEDGETVYAQKFQGRVTMTEDTSTDTAYMELSSLRSEDTALYHCATYGSSWHWNEGNEGSYYFDYWGQGTLVTVSS
VL: CDIQMTQSPSSLSASVGDRVTITCQASQDISIYLNWYQQKPGKAPKLLIYDASNLETGVPSRFSGSGSGTDFTFTISGLQPEDVARYYCQQYDDLPITFGQGTRLEIK
notes: as for B1
EC50 [6]: 1.3 nM
